These results are taken from FireProtDB (doi:10.1110/ps.5101).

For this data set the following is noted: Pseudomonas aeruginosa (strain ATCC 15692 / DSM 22644 / CIP 104116 / JCM 14847 / LMG 12228 / 1C / PRS 101 / PAO1); pH 7; 10 °C; GdnHCl; Fluorescence; sodium phosphate 50 mM; reversible: yes; whole UniProt chain shown.

B1: Cytochrome c-551 wild type, P00099 (protein)
chain: MKPYALLSLLATGTLLAQGAWAEDPEVLFKNKGCVACHAIDTKMVGPAYKDVAAKFAGQAGAEAELAQRIKNGSQGVWGPIPMPPNAVSDDEAQTLAKWVLSQK
On to B1, for which the denaturant m value came out at 3.3 kcal/mol/M, the “denaturant midpoint (higher = more stable)” value came out at 1.8 M and the unfolding free energy came to 6.1 kcal/mol.
